Assays:
[1] = Inhibition of [14C]BAF312 biotransformation in HLM by CYP-specific chemical inhibitors; settings: for Rate / Relative activity: 5 μM BAF312, HLM 0.1 mg/mL, 90 min
Procedure: The incubations were carried out in 0.1 M phosphate buffer, pH 7.4. Typical incubations of 200 (or 400) μL total volume were prepared as follows: 10 μL of 100 mM MgCl2 (5 mM), stock solutions of CHAPS, substrate and microsomes or recombinant human cytochrome P450 isoenzymes were added to appropriate volume of the buffer. […] Reaction was started by addition of 20 μL of a fresh 10 mM NADPH (1 mM). The final concentrations are given in parentheses. The final concentrations of organic solvent were maximally 0.5% (v/v). For some experiments, higher incubation volumes were prepared by keeping proportionally the quantity of all solutions. The samples were incubated at 37° C. in a thermomixer (Eppendorf 5355) with agitation at 500 rpm.
The incubation reactions were stopped and the protein was precipitated by addition of an equal volume of ice-cold 0.5% formic acid in acetonitrile. After 30 min at −80° C. (or overnight at −20° C.) the samples were centrifuged at 30,000×g for 15 min. The supernatant was withdrawn. Aliquots were analyzed by LSC (20 μL) and the supernatant was diluted appropriately with water to obtain a final solution containing less than 30% of acetonitrile. For samples with lower concentration in substrate, supernatants were evaporated to about the half of initial volumes under reduced pressure at 40° C. with SpeedVac® concentrator (model AES 2010, Savant Inc., Holbrook, N.Y., USA) then mixed with 0.5% formic acid in acetonitrile to obtain a final solution containing less 30% of acetonitrile. Sample solutions were analyzed by HPLC combined with radiodetection. (for HLPC method, see Section 1.6)
The biotransformation of BAF312 was tested at 5 μM substrate concentration in the presence of the 8 individual chemical inhibitors.

[2] = substrate: CCc1cc(/C(C)=N/OCc2ccc(C3CCCCC3)c(C(F)(F)F)c2)ccc1CN1CC(C(=O)O)C1; experiment: Enzyme mapping: metabolite formation by recombinant P450 isoenzyme; assay type: in vitro ADME, human; settings: estimated by solving the Michaelis-Menten equation for the 2 substrate concentrations, pH 7.4
Procedure: (§1) Microsomes prepared from baculovirus infected insect cells (BTI-TN-5B1-4) expressing the following human P450 enzymes and the insect cell membrane preparations (negative control) were obtained from BD Biosciences (Woburn, Mass., USA).
(§2) The final concentrations are given in parentheses.
(§3) After 30 min at −80° C. […] The supernatant was withdrawn. […] Sample solutions were analyzed by HPLC combined with radiodetection. (for HLPC method, see Section 1.6)
Mean specific CYP enzyme concentrations in human liver microsomes were obtained from literature values (Rowland Yeo K, Rostami-Hodjegan A and Trucker GT (2004)] Abundance of cytochromes P450 in human liver: a meta-analysis. Br. J. Clinical Pharmacology; 57:687-688). For some recombinant human CYPs, the enzyme kinetic parameters were estimated by calculation assuming Michaelis-Menten type behavior for the two concentrations used, solving a linear equation system for 2 linear equations with 2 variables: […]
Microsomes prepared from baculovirus infected insect cells (BTI-TN-5B1-4) expressing one single human cytochrome P450 isoenzyme were used to assess the involvement of specific enzymes in the biotransformation of [14C]BAF312. Incubation experiments with a panel of 21 recombinant human CYPs (CYP1A1, 1A2, 1B1, 2A6, 2B6, 2C8, 2C9*1, 2C18, 2C19, 2D6*1, 2E1, 2J2, 3A4, 3A5, 3A7, 4A11, 4F2, 4F3A, 4F3B, 4F12 and CYP19) were conducted under similar conditions for each isoenzyme with 10 and 40 μM BAF312 incubation and 30 pmol CYP/mL for 30 min. […] Lower metabolism activities were also observed in incubation with CYP3A4, while some trace metabolism was detected with other CYP isoenzymes (2B6, 2C8, 2C19, 2J2, 3A5, 1A1).

[3] = substrate: CCc1cc(/C(C)=N/OCc2ccc(C3CCCCC3)c(C(F)(F)F)c2)ccc1CN1CC(C(=O)O)C1; experiment: Enzyme kinetics of [14C]BAF312 metabolism by rhCYP2C9; assay type: in vitro ADME, human; settings: other: CYP 2C9; obtained from kinetic experiments; pH 7.4
Procedure: The concentration-dependent kinetics of [^14C]BAF312 biotransformation (total metabolites) in rhCYP2C9 (50 pmol/mL) after 60 minutes incubation was plotted as Michaelis-Menten plot (upper) and as Eadie-Hofstee plot (V vs. V/S, bottom) fitted with substrate inhibition model using substrate concentrations 5-300 μM.
as §1, §2, §3
Enzyme kinetic parameters Vmax and Km of the biotransformation by HLM and major metabolizing enzymes were calculated by using SigmaPlot Version 8.0 (S1), Enzyme Kinetics module Version 1.1 software (SPSS Science Inc., Chicago, Ill., USA). The intrinsic clearance was calculated by the equation: CLint=Vmax/Km.
Enzyme kinetics parameters of the isoenzymes CYP2C9 and CYP3A4 for BAF312 metabolism were determined by incubating different concentrations of [^14C]BAF312 with the isoenzyme.

## N[C@@H]1C[C@H]1c1ccccc1 (racemic) [Tranylcypromine]
[1]; 2 μM and 10 μM inhibitor, 5 μM substrate concentration, HLM
  inhibition of BAF312 metabolism: 11-29%
[1]; 2 μM inhibitor
  Rate: 15.3 pmol/min/mg
  Relative activity: 89%
[1]; 10 μM inhibitor
  Rate: 12.2 pmol/min/mg
  Relative activity: 71%

## S=P(N1CC1)(N1CC1)N1CC1 [Triethylenethiophosphoramide]
[1]; 5 μM inhibitor
  Rate: 18.3 pmol/min/mg
  Relative activity: 106%
[1]; 20 μM inhibitor
  Rate: 18.8 pmol/min/mg
  Relative activity: 109%

B1: CYP2C8 (Homo sapiens) (protein)
chain: MEPFVVLVLCLSFMLLFSLWRQSCRRRKLPPGPTPLPIIGNMLQIDVKDICKSFTNFSKVYGPVFTVYFGMNPIVVFHGYEAVKEALIDNGEEFSGRGNSPISQRITKGLGIISSNGKRWKEIRRFSLTTLRNFGMGKRSIEDRVQEEAHCLVEELRKTKASPCDPTFILGCAPCNVICSVVFQKRFDYKDQNFLTLMKRFNENFRILNSPWIQVCNNFPLLIDCFPGTHNKVLKNVALTRSYIREKVKEHQASLDVNNPRDFIDCFLIKMEQEKDNQKSEFNIENLVGTVADLFVAGTETTSTTLRYGLLLLLKHPEVTAKVQEEIDHVIGRHRSPCMQDRSHMPYTDAVVHEIQRYSDLVPTGVPHAVTTDTKFRNYLIPKGTTIMALLTSVLHDDKEFPNPNIFDPGHFLDKNGNFKKSDYFMPFSAGKRICAGEGLARMELFLFLTTILQNFNLKSVDDLKNLNTTAVTKGIVSLPPSYQICFIPV
notes: purchased BD Biosciences 456252; host or cells: baculovirus infected insect cells (BTI-TN-5B1-4)
[2]; other: CYP 2C8
  Km: 2.9 µM
  kcat: 14.3 pmol/(min · nmol CYP)
  kcat/Km: 5 μL/(min. · nmol CYP)

B2: rhCYP2C9 (Homo sapiens) (protein)
chain: MDSLVVLVLCLSCLLLLSLWRQSSGRGKLPPGPTPLPVIGNILQIGIKDISKSLTNLSKVYGPVFTLYFGLKPIVVLHGYEAVKEALIDLGEEFSGRGIFPLAERANRGFGIVFSNGKKWKEIRRFSLMTLRNFGMGKRSIEDRVQEEARCLVEELRKTKASPCDPTFILGCAPCNVICSIIFHKRFDYKDQQFLNLMEKLNENIKILSSPWIQICNNFSPIIDYFPGTHNKLLKNVAFMKSYILEKVKEHQESMDMNNPQDFIDCFLMKMEKEKHNQPSEFTIESLENTAVDLFGAGTETTSTTLRYALLLLLKHPEVTAKVQEEIERVIGRNRSPCMQDRSHMPYTDAVVHEVQRYIDLLPTSLPHAVTCDIKFRNYLIPKGTTILISLTSVLHDNKEFPNPEMFDPHHFLDEGGNFKKSKYFMPFSAGKRICVGEALAGMELFLFLTSILQNFNLKSLVDPKNLDTTPVVNGFASVPPFYQLCFIPV
notes: purchased BD Biosciences 456258; host or cells: baculovirus infected insect cells (BTI-TN-5B1-4)
[3]
  Km: 34.5 µM
  kcat: 2596 ± 233 pmol/min/nmol
  kcat/Km: 1250 M⁻¹ s⁻¹

B3: CYP2C19 (Homo sapiens) (protein)
chain: MDPFVVLVLCLSCLLLLSIWRQSSGRGKLPPGPTPLPVIGNILQIDIKDVSKSLTNLSKIYGPVFTLYFGLERMVVLHGYEVVKEALIDLGEEFSGRGHFPLAERANRGFGIVFSNGKRWKEIRRFSLMTLRNFGMGKRSIEDRVQEEARCLVEELRKTKASPCDPTFILGCAPCNVICSIIFQKRFDYKDQQFLNLMEKLNENIRIVSTPWIQICNNFPTIIDYFPGTHNKLLKNLAFMESDILEKVKEHQESMDINNPRDFIDCFLIKMEKEKQNQQSEFTIENLVITAADLLGAGTETTSTTLRYALLLLLKHPEVTAKVQEEIERVIGRNRSPCMQDRGHMPYTDAVVHEVQRYIDLIPTSLPHAVTCDVKFRNYLIPKGTTILTSLTSVLHDNKEFPNPEMFDPRHFLDEGGNFKKSNYFMPFSAGKRICVGEGLARMELFLFLTFILQNFNLKSLIDPKDLDTTPVVNGFASVPPFYQLCFIPV
notes: purchased BD Biosciences 456259; host or cells: baculovirus infected insect cells (BTI-TN-5B1-4)
[2]; other: CYP 2C19
  Km: 140 µM
  kcat: 100 pmol/(min · nmol CYP)
  kcat/Km: 0.7 μL/(min. · nmol CYP)

B4: CYP2J2 (Homo sapiens) (protein)
chain: MLAAMGSLAAALWAVVHPRTLLLGTVAFLLAADFLKRRRPKNYPPGPWRLPFLGNFFLVDFEQSHLEVQLFVKKYGNLFSLELGDISAVLITGLPLIKEALIHMDQNFGNRPVTPMREHIFKKNGLIMSSGQAWKEQRRFTLTALRNFGLGKKSLEERIQEEAQHLTEAIKEENGQPFDPHFKINNAVSNIICSITFGERFEYQDSWFQQLLKLLDEVTYLEASKTCQLYNVFPWIMKFLPGPHQTLFSNWKKLKLFVSHMIDKHRKDWNPAETRDFIDAYLKEMSKHTGNPTSSFHEENLICSTLDLFFAGTETTSTTLRWALLYMALYPEIQEKVQAEIDRVIGQGQQPSTAARESMPYTNAVIHEVQRMGNIIPLNVPREVTVDTTLAGYHLPKGTMILTNLTALHRDPTEWATPDTFNPDHFLENGQFKKREAFMPFSIGKRACLGEQLARTELFIFFTSLMQKFTFRPPNNEKLSLKFRMGITISPVSHRLCAVPQV
notes: purchased BD Biosciences 456264; host or cells: baculovirus infected insect cells (BTI-TN-5B1-4)
[2]; other: CYP 2J2
  Km: 374 µM
  kcat: 106.7 pmol/(min · nmol CYP)
  kcat/Km: 0.3 μL/(min. · nmol CYP)

B5: CYP1A1 (Homo sapiens) (protein)
chain: MLFPISMSATEFLLASVIFCLVFWVIRASRPQVPKGLKNPPGPWGWPLIGHMLTLGKNPHLALSRMSQQYGDVLQIRIGSTPVVVLSGLDTIRQALVRQGDDFKGRPDLYTFTLISNGQSMSFSPDSGPVWAARRRLAQNGLKSFSIASDPASSTSCYLEEHVSKEAEVLISTLQELMAGPGHFNPYRYVVVSVTNVICAICFGRRYDHNHQELLSLVNLNNNFGEVVGSGNPADFIPILRYLPNPSLNAFKDLNEKFYSFMQKMVKEHYKTFEKGHIRDITDSLIEHCQEKQLDENANVQLSDEKIINIVLDLFGAGFDTVTTAISWSLMYLVMNPRVQRKIQEELDTVIGRSRRPRLSDRSHLPYMEAFILETFRHSSFVPFTIPHSTTRDTSLKGFYIPKGRCVFVNQWQINHDQKLWVNPSEFLPERFLTPDGAIDKVLSEKVIIFGMGKRKCIGETIARWEVFLFLAILLQRVEFSVPLGVKVDMTPIYGLTMKHACCEHFQMQLRS
notes: purchased BD Biosciences 456211; host or cells: baculovirus infected insect cells (BTI-TN-5B1-4)
[2]; other: CYP 1A1
  Km: 25.5 µM
  kcat: 47.3 pmol/(min · nmol CYP)
  kcat/Km: 1.9 μL/(min. · nmol CYP)

Source: patent publication US20160046573A1, “IDENTIFYING PATIENT RESPONSE TO S1P RECEPTOR MODULATOR ADMINISTRATION” (Novartis AG, priority 2013, published 2016)
